Results as given in IntAct's records for PubMed 17170703.

B1: Androgen receptor (Homo sapiens), P10275 (parent)
chain: MEVQLGLGRVYPRPPSKTYRGAFQNLFQSVREVIQNPGPRHPEAASAAPPGASLLLLQQQQQQQQQQQQQQQQQQQQQQQETSPRQQQQQQGEDGSPQAHRRGPTGYLVLDEEQQPSQPQSALECHPERGCVPEPGAAVAASKGLPQQLPAPPDEDDSAAPSTLSLLGPTFPGLSSCSADLKDILSEASTMQLLQQQQQEAVSEGSSSGRAREASGAPTSSKDNYLGGTSTISDNAKELCKAVSVSMGLGVEALEHLSPGEQLRGDCMYAPLLGVPPAVRPTPCAPLAECKGSLLDDSAGKSTEDTAEYSPFKGGYTKGLEGESLGCSGSAAAGSSGTLELPSTLSLYKSGALDEAAAYQSRDYYNFPLALAGPPPPPPPPHPHARIKLENPLDYGSAWAAAAAQCRYGDLASLHGAGAAGPGSGSPSAAASSSWHTLFTAEEGQLYGPCGGGGGGGGGGGGGGGGGGGGGGGEAGAVAPYGYTRPPQGLAGQESDFTAPDVWYPGGMVSRVPYPSPTCVKSEMGPWMDSYSGPYGDMRLETARDHVLPIDYYFPPQKTCLICGDEASGCHYGALTCGSCKVFFKRAAEGKQKYLCASRNDCTIDKFRRKNCPSCRLRKCYEAGMTLGARKLKKLGNLKLQEEGEASSTTSPTEETTQKLTVSHIEGYECQPIFLNVLEAIEPGVVCAGHDNNQPDSFAALLSSLNELGERQLVHVVKWAKALPGFRNLHVDDQMAVIQYSWMGLMVFAMGWRSFTNVNSRMLYFAPDLVFNEYRMHKSRMYSQCVRMRHLSQEFGWLQITPQEFLCMKALLLFSIIPVDGLKNQKFFDELRMNYIKELDRIIACKRKNPTSCSRRFYQLTKLLDSVQPIARELHQFTFDLLIKSHMVSVDFPEMMAEIISVQVPKILSGKVKPIYFHTQ
B2: Caspase-8 (Homo sapiens), Q14790 (parent)
chain: MDFSRNLYDIGEQLDSEDLASLKFLSLDYIPQRKQEPIKDALMLFQRLQEKRMLEESNLSFLKELLFRINRLDLLITYLNTRKEEMERELQTPGRAQISAYRVMLYQISEEVSRSELRSFKFLLQEEISKCKLDDDMNLLDIFIEMEKRVILGEGKLDILKRVCAQINKSLLKIINDYEEFSKERSSSLEGSPDEFSNGEELCGVMTISDSPREQDSESQTLDKVYQMKSKPRGYCLIINNHNFAKAREKVPKLHSIRDRNGTHLDAGALTTTFEELHFEIKPHDDCTVEQIYEILKIYQLMDHSNMDCFICCILSHGDKGIIYGTDGQEAPIYELTSQFTGLKCPSLAGKPKVFFIQACQGDNYQKGIPVETDSEEQPYLEMDLSSPQTRYIPDEADFLLGMATVNNCVSYRNPAEGTWYIQSLCQSLRERCPRGDDILTILTEVNYEVSNKDDKKNMGKQMPQPTFTLRKKLVFPSD

Variants of: B1
Details: with casp8_human CASP8, Q14790

effect of a mutation on the interaction | Variant
disrupting interaction | L26A;F27A

Variants of: B2
Details: with andr_human AR

effect of a mutation on the interaction | Variant
disrupting interaction strength | I174A;I175A

Variants of: B2
Details: with andr_human AR, P10275

effect of a mutation on the interaction | Variant
disrupting interaction strength | F45A
